Measurements taken from patent US20110093983A1, “ALGAL GLYCEROL-3 PHOSPHATE ACYLTRANSFERASE” (National Research Council of Canada, priority 2008, published 2011).

How the values were obtained:
Arabidopsis thaliana = experiment: Fatty acid and oil content analysis of T2 seeds from TpGPAT transgenic Arabidopsis; assay type: in vivo; details: transgenic Arabidopsis lines (GW), Napin promoter
Procedure: FIG. 5 graphically depicts the results of the analysis of the fatty acid 16:0 content of T2 seeds from TpGPAT transgenic Arabidopsis. Fatty acid analysis was performed on TpGPAT transformed Arabidopsis seeds. Fatty acid composition (as molar percentage) was determined in the seed oil extracted from 200 T2 seeds of 13 TpGPA:pSE transformed Arabidopsis lines (GW4-GW17). pSE129A empty plasmid transformed wild-type Arabidopsis was used as a control.
FIG. 7 graphically depicts the total oil content of TpGPAT transformed Arabidopsis seeds. Oil contents (as percentage of dry weight) were determined in 200 T2 seeds of the 13 TpGPA:pSE transformed Arabidopsis lines (GW4-12; GW14-17). Wild-type Arabidopsis was used as a control (Con).
The full length coding region of the TpGPAT gene was amplified using pfu DNA polymerase and primers designed with two restriction sites (KpnI and XbaI) added for subsequent cloning. Then, the PCR product was digested and inserted in a plant transformation vector (pSE129A) under the control of a seed-specific promoter (Napin). The binary vector was introduced by electroporation into Agrobacterium tumefaciens strain GV3101 containing helper plasmid pMP90 (Koncz and Schell, 1986). […]

yeast gat1 mutant = experiment: Fatty acid composition of TAG and phospholipids from yeast gat1 mutant expressing TpGPAT1; assay type: cell-based, Saccharomyces cerevisiae; details: for Proportion of Fatty Acid 16:0 / Proportion of Fatty Acid 16:1 / Proportion of Fatty Acid 18:0 / Proportion of Fatty Acid 18:1 / Proportion of Fatty Acid Sats / Proportion of Fatty Acid Unsats: 3-day induction with 2% galactose, average ± SD, three replicates
Procedure: Yeast cultures were grown at 28° C. in the presence of 2% (w/v) glucose and 1% (w/v) Tergitol NP-40 (Sigma, St. Louis, Mo., US). Expression of the transgene was induced at OD600 nm 0.2 to 0.3 by supplementing galactose to 2% (w/v). At that time, the appropriate FAs were added to a final concentration of 50 or 100 μM in the presence of 1% (w/v) Tergitol NP-40 (Sigma, St. Louis, Mo., US). Yeast cells (20 ml) were harvested after a 3-day incubation, total lipids from yeast homogenates were extracted using the procedure of Schneiter (2005). Separation of neutral lipids and polar lipids was performed by running the thin layer chromatography plates (Si 250-PA, Baker, Phillipsburg, N.J.) in a developing solvent of hexane: ether: acetic acid (70:30:1, v/v) and identified by co-migration with known standards. Spots corresponding to TAG and phospholipid were scraped off the TLC plates and were transmethylated with methanolic HCl and quantified by gas chromatography as described previously. (Zheng and Zou, 2001).
To investigate if the over-expression of TpGPAT has any effect on the fatty acids composition of yeast lipids in vivo, the gall cells harboring TpGPAT or an empty vector as control were induced for 3 days by galactose at 28° C. The total lipids was extracted and then separated into triacylglycerols (TAGS) and phospholipids by TLC for the analysis of fatty acid composition. […] Approximately 12% and 18% increase of 16:0 in phospholipids and triacylglycerols, respectively, turned 16:0 into the most dominant fatty acid in the TpGPAT expressing yeast cells, instead of 16:1 fatty acid in the mutant cells harboring the empty vector. Conversely, the unsaturated fatty acids, 16:1 and 18:1, were reduced to 15% and 21% in these two lipid species. […] Collectively, the results strongly support the finding in the in vitro substrate specificity assay that 16:0 is the most preferred substrate for TpGPAT.

Brassica napus = experiment: Fatty acid analysis of T1 seeds from TpGPAT transgenic Brassica napus; assay type: in vivo; details: 5 transgenic Brassica napus events; wild-type 4.27-4.64%
Procedure: FIG. 6 graphically depicts the results of the analysis of the fatty acid 16:0 content of T1 seeds from TpGPAT transgenic Brassica napus. Fatty acid analysis was performed on TpGPAT transformed B. napus seeds. Fatty acid composition (as molar percentage) was determined in the seed oil extracted from T1 seeds of five independent TpGPAT:pSE transformed Brassica napus events (GPAT1, 3, 4, 7 and 12). Wild-type B. napus was used as a control.
The full length coding region of the TpGPAT gene was amplified using pfu DNA polymerase and primers designed with two restriction sites (KpnI and XbaI) added for subsequent cloning. Then, the PCR product was digested and inserted in a plant transformation vector (pSE129A) under the control of a seed-specific promoter (Napin). The binary vector was introduced by electroporation into Agrobacterium tumefaciens strain GV3101 containing helper plasmid pMP90 (Koncz and Schell, 1986).
Brassica napus 5-day-old hypocotyls were also transformed with Agrobacterium containing the TpGPAT/pSE129A construct. Transgenic T0 plants were regenerated, selected for resistance to kanamycin and grown in soil. Individual plants were bagged to allow self-pollination. Presence of the TpGPAT and Kan genes in the resistant plants was verified by PCR with the appropriate primers in 18 independent events. T1 seeds from the first set of 5 transgenic events were harvested and analyzed. […]

B1: TpGPAT1: membrane-bound glycerol-3-phosphate acyltransferase from T. pseudonana, 674 amino acids, SEQ ID NO:2 (nucleotide SEQ ID NO:1) (protein, listed as Thalassiosira pseudonana)
chain: MGVEKKGTMMSELDYTKAQLAFFYIVVLLSLDMLNPVKIFLHVFPAIKSWHIATFAIACMSYIFIVNLRELLYFATKVFFHSILSIFFNDVTVVGRENIPSHGPVIFTSNHANQFMDGLMIMCTCQRTISYLVADKSWNRPIIGHLAWMMGGVPVKRAQDSACKGTGKISIDLNALAGSDAVINVVGKGTSFTSQIKAGDKIRLPNNAIGIKVESIESDESMSLKVEDGVAEVLSSHPFPEYVTYDILPRIDQKDVYQNVLEKLASGGTIGIFPEGGSHDRTDLLPLKVGVALIAYSELEKDGINVPIVPVGLNYFRAHRFRGKATVEFGSPTYIEPSTLADYKKGGADKRRVCNDLLARIENSMRSVIVSVPDFETLQTIHAARRLYRQDGRNETAEQRQDMGRRFAEGYKRVLLQLGGEPPEEWLSLQSRILAYQKELNELGIRDYQVVGLDHEEVELGSESQGHSKADTVLHRMNVFGHIVHLFVIAVLAALPAMLLNLPVGLASRIYSNRRRKVALAASKVKVKGYDVMLSERVLACIVLVPSLWVVYGLLLSLFTSLDGPSLAVCFTCFPLFSYWSIMATESGMVDIKDLRPYVMRMIPSARRRLAALPATRKALRSDLRAMIKKIGPSLGDIYYEKDLNWQKIQMETKRMSMEELDPAQKDEAAKKEE
Arabidopsis thaliana
  16:0 content of T2 seeds compared to non-transformed control: More than half of the identified transgenic lines (GW) showed an increase of 16:0
Yeast gat1 mutant; Phospholipids
  Proportion of Fatty Acid 16:0: 31.10 ± 3.78 mol %
  Proportion of Fatty Acid 16:1: 34.15 ± 2.74 mol %
  Proportion of Fatty Acid 18:0: 8.92 ± 1.49 mol %
  Proportion of Fatty Acid 18:1: 25.45 ± 2.25 mol %
  Proportion of Fatty Acid Sats: 40.02 ± 4.57 mol %
  Proportion of Fatty Acid Unsats: 59.83 ± 4.61 mol %
Yeast gat1 mutant; TAG
  Proportion of Fatty Acid 16:0: 41.80 ± 2.17 mol %
  Proportion of Fatty Acid 16:1: 29.15 ± 1.61 mol %
  Proportion of Fatty Acid 18:0: 9.17 ± 1.22 mol %
  Proportion of Fatty Acid 18:1: 18.94 ± 0.99 mol %
  Proportion of Fatty Acid Sats: 50.97 ± 2.85 mol %
  Proportion of Fatty Acid Unsats: 48.49 ± 2.44 mol %
Yeast gat1 mutant; yeast gat1, both TAG and phospholipids
  Increase of 18:0 versus empty vector: 3-4%
Yeast gat1 mutant; yeast gat1, phospholipids
  Reduction of unsaturated fatty acids 16:1 and 18:1 in phospholipids versus empty vector: 15%
Yeast gat1 mutant; yeast gat1, triacylglycerols
  Increase of 16:0 in triacylglycerols versus empty vector: ~18%
  Reduction of unsaturated fatty acids 16:1 and 18:1 in triacylglycerols versus empty vector: 21%
Brassica napus
  16:0 percentage in T1 seeds: 4.64-6.67%
